How the values were obtained:
[1] = biological target: human lymph node derived calcium activated potassium channel polypeptide hKCa4, transiently expresse (human); assay: cell-based or functional assay
[2] = biological target: cloned hKCa4 (SEQ ID NO:3) (human); assay: cell-based or functional assay

Molecule | Kd for block of KCa current, whole cell patch clamp [1] | IC50 as peptide blocker of the channel [2]
apamin (from UniProt P01500 28-45) (peptide) | > 1000 nM | –
iberiotoxin (from UniProt P24663 1-37) (peptide) | > 1000 nM | –
kaliotoxin (from UniProt P24662 1-38) (peptide) | > 1000 nM | –
scyllatoxin (from UniProt P16341 1-31) (peptide) | > 1000 nM | –
QFTNVSCTTSKECWSVCQRLHNTSRGKCMNKKCRCYS (modifications not checked) [charybdotoxin, P13487 23-59] | – | 5 to 10 nM
